The EC50 is the concentration that produces a half-maximal response. The low end stands for greater potency, the high end for weaker potency.

Assay [1] deals with huFXII-his (human) (UniProt P00748). The assay is described as follows: cell-based or functional assay.
For assay [2] the target is unchanged. The assay can be described thus: ELISA, huFXII-his coated at 1 µg/ml, HRP anti-human secondary, OD450. For orientation: In an ELISA, binding on a coated surface is turned into a signal by an enzyme label.
The target in assay [3] is FXIIa (purchased from Enzyme Research Lab) (UniProt P00748). The assay is described as follows: cell-based or functional assay.
Assay [4] has as its target huFXII-his (human) (UniProt P00748). The assay is described as follows: cell-based or functional assay. The source holds these as a separate data set.
For assay [5], the target named is T1, FXIIa (purchased from Enzyme Research Lab) (UniProt P00748 20-615, limits assumed).
T1 sequence (looked up): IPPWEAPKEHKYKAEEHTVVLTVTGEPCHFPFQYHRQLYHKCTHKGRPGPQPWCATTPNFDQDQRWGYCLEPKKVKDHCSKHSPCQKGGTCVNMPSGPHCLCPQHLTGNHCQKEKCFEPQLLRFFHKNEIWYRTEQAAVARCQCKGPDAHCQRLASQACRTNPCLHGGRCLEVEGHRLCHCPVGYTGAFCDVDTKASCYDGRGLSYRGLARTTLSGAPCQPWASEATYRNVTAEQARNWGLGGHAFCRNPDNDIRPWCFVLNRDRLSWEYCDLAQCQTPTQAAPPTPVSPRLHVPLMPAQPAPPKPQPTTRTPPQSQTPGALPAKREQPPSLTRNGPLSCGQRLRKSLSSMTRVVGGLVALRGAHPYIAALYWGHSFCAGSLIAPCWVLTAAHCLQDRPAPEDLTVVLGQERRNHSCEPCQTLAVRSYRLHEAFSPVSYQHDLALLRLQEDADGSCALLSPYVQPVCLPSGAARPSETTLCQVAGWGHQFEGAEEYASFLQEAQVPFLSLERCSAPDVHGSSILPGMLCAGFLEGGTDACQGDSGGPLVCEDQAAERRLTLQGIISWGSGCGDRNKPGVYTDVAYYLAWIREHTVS
The assay can be described thus: cell-based or functional assay.

In the next assay the target is T2, huFXII-his (human, UniProt P00748 20-615).
T2 sequence (looked up): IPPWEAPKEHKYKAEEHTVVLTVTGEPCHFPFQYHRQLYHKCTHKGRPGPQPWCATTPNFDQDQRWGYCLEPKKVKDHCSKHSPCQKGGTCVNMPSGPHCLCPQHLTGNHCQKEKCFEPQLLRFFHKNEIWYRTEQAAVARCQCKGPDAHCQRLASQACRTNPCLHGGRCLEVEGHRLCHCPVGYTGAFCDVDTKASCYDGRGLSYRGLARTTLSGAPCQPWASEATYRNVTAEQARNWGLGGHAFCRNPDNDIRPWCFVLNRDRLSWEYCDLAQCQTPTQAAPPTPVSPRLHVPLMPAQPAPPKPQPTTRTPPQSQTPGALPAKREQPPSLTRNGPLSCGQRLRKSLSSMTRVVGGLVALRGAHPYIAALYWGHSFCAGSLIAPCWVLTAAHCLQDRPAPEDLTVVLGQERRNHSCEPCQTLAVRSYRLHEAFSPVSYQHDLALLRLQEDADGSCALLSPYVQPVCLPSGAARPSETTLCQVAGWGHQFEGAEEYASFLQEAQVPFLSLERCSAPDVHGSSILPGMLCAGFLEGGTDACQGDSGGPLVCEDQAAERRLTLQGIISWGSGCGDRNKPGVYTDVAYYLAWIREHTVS
The assay can be described thus: cell-based or functional assay.

Where two headings read alike, the source gives them in different places.

With CSL312 (antibody), the IC50 of inhibition of cleavage of chemical substrate S2302 by FXIIa (OD405) with huFXII-his (human) [1] was 0.0258 µg/mL; in the assay with huFXII-his (human) [4], 0.0232 µg/mL. Also, the EC50 with huFXII-his (human) [2] came out at 0.421 µg/mL. Besides, the IC50 of inhibition of the cleavage of PK proenzyme (prekallikrein) by FXIIa, read with pKa substrate CS-3102 (OD405) in assay [3] was 0.11 µM.

B1: FX-Y39 (antibody, V domains shown)
VH: QVQLQQSGGGLVQTGGSLRLACAGTGFTFSDYSMNWVRQAPGKGLEWVSYISNSRSRSSKYYADSVKGRFTISRDNAKNSLYLQMNSLRAEDTAVYYCARIGYCKNGVCGGAYDYWGQGTLVTVSS
VL: EIVLTQSPSAMSASVGDRVTITCRASQAIRNNLAWFQQKPGKVPKRLMNTASSLESGVPSRFSGSGSGTEFTLTITSLQPEDFASYYCLQYHDSPWTFGQGTKLEIK
B1: in the assay with huFXII-his (human) [4], the IC50 of inhibition of cleavage of chemical substrate S2302 by FXIIa (OD405) is 0.0398 µg/mL.

B2: FX-Y17 (antibody, V domains shown)
VH: EVQLLESGGGLVQPGGSLRLSCAGSGFSFGSQTMSWVRQAPGKGLEWVSSISVISGRTYYADSVKGRFTISRDNSKNTLYLQMNSLRAEDTAVYYCTKSHAFDVWGQGTMVTVSS
VL: EIVLTQSPATLSVSPGERATLSCRASQSVYSNLAWYQQKPGQAPRLLIYGASTRATGIPARFSGSGSGTEFTLTISSLQSEDFAVYYCQQYNKWPLSFGGGTKVEIK
As to B2, the figures for the IC50 of inhibition of cleavage of chemical substrate S2302 by FXIIa (OD405) with huFXII-his (human) [1] and with huFXII-his (human) [4] were 0.0213 µg/mL and 0.0251 µg/mL, respectively.

B3: FX-Y17-Y4 (antibody, V domains shown)
VH: EVQLLESGGGLVQPGGSLRLSCAGSGFSFGSQTMSWVRQAPGKGLEWVSSSHVISGRTYYADSVKGRFTISRDNSKNTLYLQMNSLRAEDTAVYYCTKSHAFDVWGQGTMVTVSS
VL: EIVLTQSPATLSVSPGERATLSCRASQSVYYNLAWYQQKPGQAPRLLIYGASTRATGIPARFSGSGSGTEFTLTISSLQSEDFAVYYCQQYHKWPLSFGGGTKVEIK
Consider B3, for which the IC50 of inhibition of cleavage of chemical substrate S2302 by FXIIa (OD405) with huFXII-his (human) [1] was found to be 0.0116 µg/mL. Besides, the EC50 with huFXII-his (human) [2] was determined as 0.205 µg/mL. In addition, in assay [5], the “IC50 of inhibition of the cleavage of PK proenzyme (prekallikrein) by FXIIa, read with pKa substrate CS-3102 (OD405)” value (shortened to “IC50 of inhibition of the cleavage … (OD405)”) came to 0.0306 µM.

B4: FX-Y17-Y34 (antibody, V domains shown)
VH: EVQLLESGGGLVQPGGSLRLSCAGSGFSFGSQTMSWVRQAPGKGLEWVSSISVISRRTYYADSVKGRFTISRDNSKNTLYLQMNSLRAEDTAVYYCTRSHAFDVWGQGTMVTVSS
VL: EIVLTQSPATLSVSPGERATLSCRASQSVWSNLAWYQQKPGQAPRLLIYGASTRATGIPARFSGSGSGTEFTLTISSLQSEDFAVYYCQQYHKWPLSFGGGTKVEIK
As for B4, the “IC50 of inhibition of the cleavage … (OD405)” value in assay [5] is 0.0271 µM. Also, the “IC50 of inhibition of cleavage of chemical substrate S2302 by FXIIa (OD405)” value with huFXII-his is 0.0282 µg/mL.

B5: FX-Y17-Y26 (antibody, V domains shown)
VH: EVQLLESGGGLVQPGGSLRLSCAGSGFSFGSQTMSWVRQAPGKGLEWVSSISVISGRTYYADSVKGRFTISRDNSKNTLYLQMNSLRAEDTAVYYCTKSHAFDVWGQGTMVTVSS
VL: EIVLTQSPATLSVSPGERATLSCRASQSVYSALAWYQQKPGQAPRLLIYGASTRATGIPARFSGSGSGTEFTLTISSLQSEDFAVYYCQQYHKWPLSFGGGTKVEIK
Take B5: in the assay with huFXII-his, the “IC50 of inhibition of cleavage of chemical substrate S2302 by FXIIa (OD405)” value was determined as 0.0163 µg/mL.

B6: FX-Y17-Y45 (antibody, V domains shown)
VH: EVQLLESGGGLVQPGGSLRLSCAGSGFSFGSQTMSWVRQAPGKGLEWVSSISHISGRTYYADSVKGRFTISRDNSKNTLYLQMNSLRAEDTAVYYCAKSHAFDVWGQGTMVTVSS
VL: EIVLTQSPATLSVSPGERATLSCRASQSVYSALAWYQQKPGQAPRLLIYGASTRATGIPARFSGSGSGTEFTLTISSLQSEDFAVYYCQQNNRWPLSFGGGTKVEIK
B6: the IC50 of inhibition of cleavage of chemical substrate S2302 by FXIIa (OD405) with huFXII-his (human) [1] amounted to 0.0221 µg/mL. In the assay with huFXII-his (human) [2], this molecule displayed an EC50 of 0.358 µg/mL. Besides, the “IC50 of inhibition of the cleavage … (OD405)” value in assay [5] worked out at 0.0235 µM.

These data come from EP4729546A1 (Jiangsu BioJeTay Biotechnology Co., Ltd., dated 2026).
